Values joined by “and” are separate entries in the source; they are usually repeats but may differ in a detail not shown here. Equal entries are not always repeated.
B1: His6-Kis antitoxin (natural protein, plasmid R1, UniProt P13975 1-85, looked up)
chain: MHTTRLKRVGGSVMLTVPPALLNALSLGTDNEVGMVIDNGRLIVEPYRRPQYSLAELLAQCDPNAEISAEEREWLDAPATGQEEI
notes: also called HisKis; source: purified as described [12]
B2: CcdA antitoxin (natural protein, plasmid F, UniProt P62552 1-72, looked up)
chain: MKQRITVTVDSDSYQLLKAYDVNISGLVSTTMQNEARRLRAERWKAENQEGMAEVARFIEMNGSFADENRDW
notes: source: E. coli strain SG22623 carrying plasmid pKK223CcdA, purified as described previously [35]

Experiments:
CcdB toxin [1] = molecular target: T1, CcdB toxin (plasmid F, UniProt P62554 1-101); assay: native MS; CcdB:His6Kis molar ratio 1:4 (Fig. 6D); 100 mM ammonium acetate pH 6.7; lowest protein concentration 5 µM; settings: both partners purified
T1 construct: source: E. coli strain B462 carrying plasmid pULB2250, purified (Sephacryl S-200, MonoQ, CM-Sepharose)

CcdB toxin [2] = molecular target: T1, CcdB toxin; assay: native MS; CcdB:His6Kis molar ratios 2:1, 1:1 and 1:2 (Fig. 6A-C); 100 mM ammonium acetate pH 6.7; lowest protein concentration 10 µM; settings: both partners purified
[3] = molecular target: the molecule itself; assay: as above
Kid toxin (plasmid R1) = Kid toxin (plasmid R1) (UniProt P13976); assay: native MS; Kid:CcdA ratios 2:1, 1:1 and 1:2; 100 mM ammonium acetate pH 6.7; lowest protein concentration 10 µM
CcdB toxin [4] = molecular target: T1, CcdB toxin; assay: native MS; CcdB:CcdA molar ratios 1:2 and 1:4 (CcdA in excess); 100 mM ammonium acetate pH 6.7; lowest protein concentration 10 µM; settings: both partners purified
CcdB toxin [5] = molecular target: T1, CcdB toxin; assay: native MS; CcdB:CcdA molar ratios 2:1 and 1:1 (CcdB equal to or in excess of CcdA); 100 mM ammonium acetate pH 6.7; lowest protein concentration 10 µM; settings: both partners purified

T1 sequence (P62554 whole entry): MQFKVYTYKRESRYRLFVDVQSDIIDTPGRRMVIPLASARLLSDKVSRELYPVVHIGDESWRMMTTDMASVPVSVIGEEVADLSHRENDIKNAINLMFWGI
Chain of Kid toxin (plasmid R1) (P13976 24-133): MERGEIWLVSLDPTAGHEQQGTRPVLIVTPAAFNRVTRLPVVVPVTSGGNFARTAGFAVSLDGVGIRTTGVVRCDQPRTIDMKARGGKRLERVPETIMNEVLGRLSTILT

| Binder | stoichiometry N (CcdB toxin [1]) | stoichiometry N (CcdB toxin [2]) | stoichiometry N [3] | stoichiometry N (CcdA per Kid (1:2)) (Kid toxin (plasmid R1)) | stoichiometry N (CcdA per Kid (2:2)) (Kid toxin (plasmid R1)) | stoichiometry N (CcdB toxin [4]) | stoichiometry N (CcdB toxin [5]) |
| --- | --- | --- | --- | --- | --- | --- | --- |
| B1 | 0.5 His6Kis per CcdB (1:2) | 1 His6Kis per CcdB (2:2) | 2 |  |  |  |  |
| B2 |  |  |  | 0.5 | 1 | 1 CcdA per CcdB (2:2) | 0.5 CcdA per CcdB (1:2) and 0.5 CcdA per CcdB (2:4) |
